According to the supplement of paper PMC5998384:

Experiments:
[1] = tested on: HeLa Kyoto; experiment: solubility in G1/S (NP-40 vs SDS abundance) (log2 ratio); higher = more soluble; settings: cell cycle stage: G1/S
[2] = tested on: HeLa Kyoto; experiment: melting temperature (median over replicates), in situ; higher = more thermally stable
[3] = tested on: HeLa Kyoto; experiment: solubility change mitosis vs G1/S (difference of NP-40 vs SDS log2 ratios) (log2 ratio difference); higher = more soluble in mitosis
[4] = tested on: HeLa Kyoto; experiment: thermal stability score vs G1/S (z-score of summed log2 fold changes over temperatures); higher = more thermally stable than in G1/S
[5] = cell cycle stage: early G1 (4.5 h after nocodazole release)
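Throughout, for melting temperature (median over replicates), in situ: HeLa Kyoto cells synchronized by double thymidine or nocodazole block, proteins quantified by TMT10plex mass spectrometry, three independent biological replicates.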
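Throughout, for solubility change mitosis vs G1/S (difference of NP-40 vs SDS log2 ratios): synchronized HeLa Kyoto cells (double thymidine block for G1/S, nocodazole release for mitosis), protein amounts in NP-40 versus SDS lysates quantified by mass spectrometry, three biological replicates.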
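Throughout, for solubility in G1/S (NP-40 vs SDS abundance): HeLa Kyoto cells arrested at G1/S by double thymidine block, proteins quantified by TMT10plex mass spectrometry in mild NP-40 versus SDS extracts, three biological replicates.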
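Throughout, for thermal stability score vs G1/S (z-score of summed log2 fold changes over temperatures): synchronized HeLa Kyoto cells, proteins quantified by TMT10plex mass spectrometry, three biological replicates, mitosis taken 0.5 h after nocodazole release, G1/S directly after double thymidine block.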

Sequence	solubility in G1/S (log2) [1]	melting temperature ([2]; cell cycle stage: G1/S)	melting temperature ([2]; cell cycle stage: mitosis)	solubility change mitosis (log2) [3]	thermal stability score [4, 5]	thermal stability score ([4]; cell cycle stage: mitosis)
MADYSTVPPPSSGSAGGGGGGGGGGGVNDAFKDALQRARQIAAKIGGDAGTSLNSNDYGYGGQKRPLEDGDQPDAKKVAPQNDSFGTQLPPMHQQQSRSVMTEEYKVPDGMVGFIIGRGGEQISRIQQESGCKIQIAPDSGGLPERSCMLTGTPESVQSAKRLLDQIVEKGRPAPGFHHGDGPGNAVQEIMIPASKAGLVIGKGGETIKQLQERAGVKMVMIQDGPQNTGADKPLRITGDPYKVQQAKEMVLELIRDQGGFREVRNEYGSRIGGNEGIDVPIPRFAVGIVIGRNGEMIKKIQNDAGVRIQFKPDDGTTPERIAQITGPPDRCQHAAEIITDLLRSVQAGNPGGPGPGGRGRGRGQGNWNMGPPGGLQEFNFIVPTGKTGLIIGKGGETIKSISQQSGARIELQRNPPPNADPNMKLFTIRGTPQQIDYARQLIEEKIGGPVNPLGPPVPHGPHGVPGPHGPPGPPGPGTPMGPYNPAPYNPGPPGPAPHGPPAPYAPQGWGNAYPHWQQQAPPDPAKAGTDPNSAAWAAYYAHYYQQQAQPPPAAPAGAPTTTQTNGQGDQQNPAPAGQVDYTKAWEEYYKKMGQAVPAPTGAPPGGQPDYSAAWAEYYRQQAAYYAQTSPQGMPQHPPAPQGQ [FUBP1]	0.527	57 °C	56.4 °C	0.0996	-0.104	-0.787
MAALEEEFTLSSVVLSAGPEGLLGVEQSDKTDQFLVTDSGRTVILYKVSDQKPLGSWSVKQGQIITCPAVCNFQTGEYVVVHDNKVLRIWNNEDVNLDKVFKATLSAEVYRILSVQGTEPLVLFKEGAVRGLEALLADPQQKIETVISDEEVIKWTKFFVVFRHPVLIFITEKHGNYFAYVQMFNSRILTKYTLLLGQDENSVIKSFTASVDRKFISLMSLSSDGCIYETLIPIRPADPEKNQSLVKSLLLKAVVSGNARNGVALTALDQDHVAVLGSPLAASKECLSVWNIKFQTLQTSKELPQGTSGQLWYYGEHLFMLHGKSLTVIPYKCEVSSLAGALGKLKHSQDPGTHVVSHFVNWETPQGCGLGFQNSEQSRRILRRRKIEVSLQPEVPPSKQLLSTIMKDSEKHIEVEVRKFLALKQTPDFHTVIGDTVTGLLERCKAEPSFYPRNCLMQLIQTHVLSYSLCPDLMEIALKKKDVQLLQLCLQQFPDIPESVTCACLKIFLSIGDDSLQETDVNMESVFDYSINSVHDEKMEEQTEILQNGFNPEEDKCNNCDQELNKKPQDETKESTSCPVVQKRAALLNAILHSAYSETFLLPHLKDIPAQHITLFLKYLYFLYLKCSENATMTLPGIHPPTLNQIMDWICLLLDANFTVVVMMPEAKRLLINLYKLVKSQISVYSELNKIEVSFRELQKLNQEKNNRGLYSIEVLELF [NOL11]	-0.963	55.1 °C	52.9 °C	0.471	-2.5	-6.66
MVDKKLVVVFGGTGAQGGSVARTLLEDGTFKVRVVTRNPRKKAAKELRLQGAEVVQGDQDDQVIMELALNGAYATFIVTNYWESCSQEQEVKQGKLLADLARRLGLHYVVYSGLENIKKLTAGRLAAAHFDGKGEVEEYFRDIGVPMTSVRLPCYFENLLSHFLPQKAPDGKSYLLSLPTGDVPMDGMSVSDLGPVVLSLLKMPEKYVGQNIGLSTCRHTAEEYAALLTKHTRKVVHDAKMTPEDYEKLGFPGARDLANMFRFYALRPDRDIELTLRLNPKALTLDQWLEQHKGDFNLL [NMRAL1]	0.417	48.9 °C	49.3 °C	-0.127	4.25	3.59
MESVSCSAAAVRTGDMESQRDLSLVPERLQRREQERQLEVERRKQKRQNQEVEKENSHFFVATFVRERAAVEELLERAESVERLEEAASRLQGLQKLINDSVFFLAAYDLRQGQEALARLQAALAERRRGLQPKKRFAFKTRGKDAASSTKVDAAPGIPPAVESIQDSPLPKKAEGDLGPSWVCGFSNLESQVLEKRASELHQRDVLLTELSNCTVRLYGNPNTLRLTKAHSCKLLCGPVSTSVFLEDCSDCVLAVACQQLRIHSTKDTRIFLQVTSRAIVEDCSGIQFAPYTWSYPEIDKDFESSGLDRSKNNWNDVDDFNWLARDMASPNWSILPEEERNIQWD [TBCC]	0.242	51.8 °C	52.4 °C	-0.152	0.786	0.503
MVQLRPRASRAPASAEAMVDEGQLASEEEEAEHGLLLGQPSSGAAAEPLEEDEEGDDEFDDEAPEELTFASAQAEAREEERRVRETVRRDKTLLKEKRKRREELFIEQKKRKLLPDTILEKLTTASQTNIKKSPGKVKEVNLQKKNEDCEKGNDSKKVKVQKVQSVSQNKSYLAVRLKDQDLRDSRQQAAQAFIHNSLYGPGTNRTTVNKFLSLANKRLPVKRAAVQFLNNAWGIQKKQNAKRFKRRWMVRKMKTKK [NOL7]	-1.02	56.9 °C	54 °C	0.763	-0.722	-4.23
MGKVRGLRARVHQAAVRPKGEAAPGPAPPAPEATPPPASAAGKDWAFINTNIFARTKIDPSALVQKLELDVRSVTSVRRGEAGSSARSVPSIRRGAEAKTVLPKKEKMKLRREQWLQKIEAIKLAEQKHREERRRRATVVVGDLHPLRDALPELLGLEAGSRRQARSRESNKPRPSELSRMSAAQRQQLLEEERTRFQELLASPAYRASPLVAIGQTLARQMQLEDGGQL [FAM207A]	-0.11	48.3 °C	48.5 °C	0.342	0.13	0.618
MDAKARNCLLQHREALEKDIKTSYIMDHMISDGFLTISEEEKVRNEPTQQQRAAMLIKMILKKDNDSYVSFYNALLHEGYKDLAALLHDGIPVVSSSSGKDSVSGITSYVRTVLCEGGVPQRPVVFVTRKKLVNAIQQKLSKLKGEPGWVTIHGMAGCGKSVLAAEAVRDHSLLEGCFPGGVHWVSVGKQDKSGLLMKLQNLCTRLDQDESFSQRLPLNIEEAKDRLRILMLRKHPRSLLILDDVWDSWVLKAFDSQCQILLTTRDKSVTDSVMGPKYVVPVESSLGKEKGLEILSLFVNMKKADLPEQAHSIIKECKGSPLVVSLIGALLRDFPNRWEYYLKQLQNKQFKRIRKSSSYDYEALDEAMSISVEMLREDIKDYYTDLSILQKDVKVPTKVLCILWDMETEEVEDILQEFVNKSLLFCDRNGKSFRYYLHDLQVDFLTEKNCSQLQDLHKKIITQFQRYHQPHTLSPDQEDCMYWYNFLAYHMASAKMHKELCALMFSLDWIKAKTELVGPAHLIHEFVEYRHILDEKDCAVSENFQEFLSLNGHLLGRQPFPNIVQLGLCEPETSEVYQQAKLQAKQEVDNGMLYLEWINKKNITNLSRLVVRPHTDAVYHACFSEDGQRIASCGADKTLQVFKAETGEKLLEIKAHEDEVLCCAFSTDDRFIATCSVDKKVKIWNSMTGELVHTYDEHSEQVNCCHFTNSSHHLLLATGSSDCFLKLWDLNQKECRNTMFGHTNSVNHCRFSPDDKLLASCSADGTLKLWDATSANERKSINVKQFFLNLEDPQEDMEVIVKCCSWSADGARIMVAAKNKIFLFDIHTSGLLGEIHTGHHSTIQYCDFSPQNHLAVVALSQYCVELWNTDSRSKVADCRGHLSWVHGVMFSPDGSSFLTSSDDQTIRLWETKKVCKNSAVMLKQEVDVVFQENEVMVLAVDHIRRLQLINGRTGQIDYLTEAQVSCCCLSPHLQYIAFGDENGAIEILELVNNRIFQSRFQHKKTVWHIQFTADEKTLISSSDDAEIQVWNWQLDKCIFLRGHQETVKDFRLLKNSRLLSWSFDGTVKVWNIITGNKEKDFVCHQGTVLSCDISHDATKFSSTSADKTAKIWSFDLLLPLHELRGHNGCVRCSAFSVDSTLLATGDDNGEIRIWNVSNGELLHLCAPLSEEGAATHGGWVTDLCFSPDGKMLISAGGYIKWWNVVTGESSQTFYTNGTNLKKIHVSPDFKTYVTVDNLGILYILQTLE [APAF1]	-0.414	51.2 °C	49.7 °C	-0.0529	-0.116	0.0498
MATYTCITCRVAFRDADMQRAHYKTDWHRYNLRRKVASMAPVTAEGFQERVRAQRAVAEEESKGSATYCTVCSKKFASFNAYENHLKSRRHVELEKKAVQAVNRKVEMMNEKNLEKGLGVDSVDKDAMNAAIQQAIKAQPSMSPKKAPPAPAKEARNVVAVGTGGRGTHDRDPSEKPPRLQWFEQQAKKLAKQQEEDSEEEEEDLDGDDWEDIDSDEELECEDTEAMDDVVEQDAEEEEAEEGPPLGAIPITDCLFCSHHSSSLMKNVAHMTKDHSFFIPDIEYLSDIKGLIKYLGEKVGVGKICLWCNEKGKSFYSTEAVQAHMNDKSHCKLFTDGDAALEFADFYDFRSSYPDHKEGEDPNKAEELPSEKNLEYDDETMELILPSGARVGHRSLMRYYKQRFGLSRAVAVAKNRKAVGRVLQQYRALGWTGSTGAALMRERDMQYVQRMKSKWMLKTGMKNNATKQMHFRVQVRF [ZNF622]	-0.924	53.3 °C	53.7 °C	0.0193	-2.54	-0.435
